Common to all, as to conditions: both partners purified
Experiment [1] addresses T1, LEDGF/p75_(345–426) (human, UniProt O75475 345-426, 15N-labeled).
T1 construct: also called LEDGF/p75-IBD; LEDGF/p75 IBD; source: E. coli Rosetta2 (DE3), purified
T1 sequence (looked up): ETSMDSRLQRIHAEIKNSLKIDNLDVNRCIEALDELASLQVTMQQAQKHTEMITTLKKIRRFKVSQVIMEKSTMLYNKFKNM
Kind of experiment: NMR titration; 20 µM 15N-labeled IBD (HRP-2 469–549 or LEDGF/p75 345–426) mixed with various concentrations of unlabeled synthetic MLL peptide (123–160); 15N/1H HSQC (SOFAST), 25 °C; KD from chemical shift perturbations.

Experiment [2] addresses T2, HRP-2_(469–549) (human, UniProt Q7Z4V5 469-549, 15N-labeled).
T2 construct: also called HRP-2-IBD; HRP-2 IBD; source: E. coli Rosetta2 (DE3), purified
T2 sequence (looked up): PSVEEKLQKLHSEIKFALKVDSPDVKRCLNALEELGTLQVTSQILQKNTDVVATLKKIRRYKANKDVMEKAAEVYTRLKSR
The description is as above.

In experiment [3] the target is T3, MBP-LEDGF/p75_(325–530) (human, UniProt O75475 325-530).
T3 construct: LEDGF/p75 C-terminal fragment, residues 325-530; also called LEDGF_(325–530); MBP-fused C-terminal fragment of LEDGF/p75; source: E. coli Rosetta2 (DE3), purified
T3 sequence (looked up): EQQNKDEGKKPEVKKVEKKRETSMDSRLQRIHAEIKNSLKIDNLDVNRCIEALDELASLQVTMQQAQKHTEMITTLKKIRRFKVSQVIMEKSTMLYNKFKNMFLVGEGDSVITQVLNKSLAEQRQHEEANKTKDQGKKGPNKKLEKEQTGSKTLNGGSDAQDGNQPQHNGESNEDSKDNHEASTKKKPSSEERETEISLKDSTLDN
Kind of experiment: AlphaScreen or HTRF; out-competition: Flag-LEDGF/p75 (0.3 nM) preincubated with MLL_(1–160)–GST (10 nM) before titration of MBP-LEDGF/p75_(325–530), MBP-HRP-2_(470–552) or MBP alone.

For experiment [4], the target named is T4, Full length flag-tagged LEDGF/p75 (human, UniProt O75475 1-530).
T4 construct: LEDGF/p75, full length; also called Flag-LEDGF/p75; flag-LEDGF/p75; source: E. coli Rosetta2 (DE3), purified
The description is as above.

B1: synthetic MLL peptide (123–160) (peptide, UniProt Q03164 123-160, looked up)
peptide: GTNLRRFRAVFGESGGGGGSGEDEQFLGFGSDEEVRVR
notes: also called MLL-derived peptide; source: synthetic peptide
In the case of B1, in experiment [1], the binding result is “binds”. For the same molecule, the Kd in experiment [2] is 54.4 ± 2.2 µM.

B2: MLL_(1–160)–GST (domain or fragment, UniProt Q03164 1-160, looked up)
chain: MAHSCRWRFPARPGTTGGGGGGGRRGLGGAPRQRVPALLLPPGPPVGGGGPGAPPSPPAVAAAAAAAGSSGAGVPGGAAAASAASSSSASSSSSSSSSASSGPALLRVGPGFDAALQVSAAIGTNLRRFRAVFGESGGGGGSGEDEQFLGFGSDEEVRVR
notes: MLL (MLL1, KMT2A) N-terminal fragment, residues 1-160; The printed name MLL_(1–160)–GST hints at a C-terminal GST; also called GST-tagged MLL_(1–160); GST-tagged N-terminal fragment of MLL; source: E. coli Rosetta2 (DE3), purified
Turning to B2, the binding result in experiment [3] and in experiment [4] was “binds” each time.

For the origin of these results see PMC7835958, “Unlike its Paralog LEDGF/p75, HRP-2 Is Dispensable for MLL-R Leukemogenesis but Important for Leukemic Cell Survival” (Cells, 2021).
